Consider 28 molecules from patent US20140357543A1.

Positions count from the first letter of the chain named.

B1: proteinaceous protease inhibitor of SEQ ID NO:30 (protein)
chain: MSSVEKKPEGVNTGAGDRHNLKTAWPELVGKSVEEAKKVILQDKSEAQIIVLPVGTIVTMEYRIDRVRLFVDKLDNIAQVPRVG
B2: proteinaceous protease inhibitor of SEQ ID NO:31 (protein)
chain: B1 chain with A24E, I50A
B3: proteinaceous protease inhibitor of SEQ ID NO:26 (protein)
chain: TDTGDHHNQKTDWPELVGKSVEEAPKVILQDKSEAPIAVLPVGTLVTAEAAAARVRLFVDSLDKIAQVPAVG
B4: proteinaceous protease inhibitor of SEQ ID NO:2 (protein)
chain: TDTGDHHNQKTDWPELVGKSVEEAKKVILQDKSEAQIVVLPVGTIVTMEYRIDRVRLFVDSLDKIAQVPRVG
B5: proteinaceous protease inhibitor of SEQ ID NO:13 (protein)
chain: B4 chain with D12E, R51K
B6: proteinaceous protease inhibitor of SEQ ID NO:27 (protein)
chain: B4 chain with D12K
B7: proteinaceous protease inhibitor of SEQ ID NO:7 (protein)
chain: B4 chain with D12E, M48A
B8: proteinaceous protease inhibitor of SEQ ID NO:3 (protein)
chain: B4 chain with D12A
B9: proteinaceous protease inhibitor of SEQ ID NO:28 (protein)
chain: B4 chain with D12E, Y50G
B10: proteinaceous protease inhibitor of SEQ ID NO:15 (protein)
chain: B4 chain with D12E, I52A
B11: proteinaceous protease inhibitor of SEQ ID NO:9 (protein)
chain: B4 chain with D12E, Y50A
B12: proteinaceous protease inhibitor of SEQ ID NO:19 (protein)
chain: B4 chain with D12E, R70A
B13: proteinaceous protease inhibitor of SEQ ID NO:14 (protein)
chain: B4 chain with D12E, R51H
B14: proteinaceous protease inhibitor of SEQ ID NO:29 (protein)
chain: B4 chain with D12E, R70N
B15: proteinaceous protease inhibitor of SEQ ID NO:23 (protein)
chain: B4 chain with D12E, V38A, I52A, D53A
B16: proteinaceous protease inhibitor of SEQ ID NO:8 (protein)
chain: B4 chain with D12E, M48G
B17: proteinaceous protease inhibitor of SEQ ID NO:21 (protein)
chain: B4 chain with D12E, R70K
B18: proteinaceous protease inhibitor of SEQ ID NO:18 (protein)
chain: B4 chain with D12E, D53A
B19: proteinaceous protease inhibitor of SEQ ID NO:17 (protein)
chain: B4 chain with D12E, D53E
B20: proteinaceous protease inhibitor of SEQ ID NO:10 (protein)
chain: B4 chain with D12E, Y50L
B21: proteinaceous protease inhibitor of SEQ ID NO:20 (protein)
chain: B4 chain with D12E, R70G
B22: proteinaceous protease inhibitor of SEQ ID NO:12 (protein)
chain: B4 chain with D12E, R51A
B23: proteinaceous protease inhibitor of SEQ ID NO:24 (protein)
chain: B4 chain with D12E, M48G, R70A
B24: proteinaceous protease inhibitor of SEQ ID NO:11 (protein)
chain: B4 chain with D12E, Y50F
B25: proteinaceous protease inhibitor of SEQ ID NO:25 (protein)
chain: B4 chain with D12E, V38A, R70A
B26: proteinaceous protease inhibitor of SEQ ID NO:16 (protein)
chain: B4 chain with D12E, I52V
B27: proteinaceous protease inhibitor of SEQ ID NO:4 (protein)
chain: B4 chain with D12E, V38A
B28: proteinaceous protease inhibitor of SEQ ID NO:22 (protein)
chain: B4 chain with D12E, V38A, R51A, I52A

This assay has as its target T1, alcalase (trade name "Alcalase 2.5L", Novozymes) (UniProt P00780).
T1 sequence (looked up): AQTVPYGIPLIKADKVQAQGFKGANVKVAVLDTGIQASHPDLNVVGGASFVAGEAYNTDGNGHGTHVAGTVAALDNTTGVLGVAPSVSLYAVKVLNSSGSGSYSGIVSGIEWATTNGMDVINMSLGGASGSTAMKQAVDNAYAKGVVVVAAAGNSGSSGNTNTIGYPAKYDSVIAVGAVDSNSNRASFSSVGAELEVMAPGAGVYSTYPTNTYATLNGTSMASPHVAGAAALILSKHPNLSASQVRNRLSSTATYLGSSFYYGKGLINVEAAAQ
In words: cell-based or functional assay.
The molecule B1 came in with a Protease activity upon dilution (%) immediately after preparation of 80% and a Remaining activity (%) immediately after preparation of 15%.
Consider B2, for which the Protease activity upon dilution (%) immediately after preparation was 75% and the Remaining activity (%) immediately after preparation is 2%.
The molecule B3 returned a Protease activity upon dilution (%) immediately after preparation of 85% and a Remaining activity (%) immediately after preparation of 19%.
B4 showed a Protease activity upon dilution (%) immediately after preparation of 100% and a Remaining activity (%) immediately after preparation of 10%.
In the case of B5, the Protease activity upon dilution (%) immediately after preparation is 25% and the Remaining activity (%) immediately after preparation turned out to be 4%.
For B6, the Protease activity upon dilution (%) immediately after preparation was determined as 98% and the Remaining activity (%) immediately after preparation turned out to be 16%.
The matching figures for B7: 86% and 25%.
In the case of B8, the Protease activity upon dilution (%) immediately after preparation came to 89% and the Remaining activity (%) immediately after preparation is 7%.
Turning to B9, the Protease activity upon dilution (%) immediately after preparation turned out to be 90% and the Remaining activity (%) immediately after preparation was determined as 18%.
Take B10: the Protease activity upon dilution (%) immediately after preparation came out at 80% and the Remaining activity (%) immediately after preparation worked out at 3%.
The matching figures for B11: 85% and 18%.
The matching figures for B12: 85% and 2%.
B13 returned a Protease activity upon dilution (%) immediately after preparation of 85% and a Remaining activity (%) immediately after preparation of 5%.
The matching figures for B14: 95% and 19%.
For the molecule B15, the Protease activity upon dilution (%) immediately after preparation was found to be 82% and the Remaining activity (%) immediately after preparation worked out at 1%.
In turn, B16 came in with a Protease activity upon dilution (%) immediately after preparation of 85% and a Remaining activity (%) immediately after preparation of 23%.
Take B17: the Protease activity upon dilution (%) immediately after preparation was found to be 100% and the Remaining activity (%) immediately after preparation was 13%.
In the case of B18, the Protease activity upon dilution (%) immediately after preparation was found to be 85% and the Remaining activity (%) immediately after preparation came to 3%.
Regarding B19, the Protease activity upon dilution (%) immediately after preparation was 95% and the Remaining activity (%) immediately after preparation amounted to 9%.
The molecule B20 registered a Protease activity upon dilution (%) immediately after preparation of 90% and a Remaining activity (%) immediately after preparation of 9%.
B21 came in with a Protease activity upon dilution (%) immediately after preparation of 100% and a Remaining activity (%) immediately after preparation of 10%.
Molecule B22 registered a Protease activity upon dilution (%) immediately after preparation of 20% and a Remaining activity (%) immediately after preparation of 2%.
With B23, the Protease activity upon dilution (%) immediately after preparation stood at 82% and the Remaining activity (%) immediately after preparation worked out at 20%.
In the case of B24, the Protease activity upon dilution (%) immediately after preparation amounted to 90% and the Remaining activity (%) immediately after preparation came to 8%.
The matching figures for B25: 80% and 1%.
Consider B26, for which the Protease activity upon dilution (%) immediately after preparation came to 95% and the Remaining activity (%) immediately after preparation was found to be 9%.
Consider B27, for which the Protease activity upon dilution (%) immediately after preparation turned out to be 80% and the Remaining activity (%) immediately after preparation turned out to be 2%.
Turning to B28, the Protease activity upon dilution (%) immediately after preparation was 82% and the Remaining activity (%) immediately after preparation is 1%.
